# Source: paper PMC8041823, “Structural comparison of Acinetobacter baumannii β-ketoacyl-acyl carrier protein reductases in fatty acid and aryl polyene biosynthesis” (Scientific Reports, 2021)
# Key:
# [1] = biological target: Acinetobacter baumannii ApeQ (β-ketoacyl-ACP reductase of the aryl polyene biosynthesis gene cluster) (Acinetobacter baumannii (clinical CRAB strain C1)); test: crystal structure; AbApeQ co-crystallised with NADPH (1:3 molar ratio), space group P2_(1), four molecules in the asymmetric unit
# [2] = biological target: Acinetobacter baumannii ApeQ (β-ketoacyl-ACP reductase of the aryl polyene biosynthesis gene cluster) (Acinetobacter baumannii (clinical CRAB strain C1)); test: crystal structure; apo AbApeQ, space group P3_(1)2, four molecules in the asymmetric unit
# [3] = biological target: Acinetobacter baumannii FabG (β-ketoacyl-ACP reductase of the fatty acid synthase gene cluster) (Acinetobacter baumannii (clinical CRAB strain C1)) (UniProt V5VHN7); test: crystal structure; apo AbFabG, 1.79 Å, four molecules in the asymmetric unit
stoichiometry N [1],stoichiometry N [2],stoichiometry N [3],Substance
4,4,–,Acinetobacter baumannii ApeQ (β-ketoacyl-ACP reductase of the aryl polyene biosynthesis gene cluster) (enzyme)
–,–,4,Acinetobacter baumannii FabG (β-ketoacyl-ACP reductase of the fatty acid synthase gene cluster) (from UniProt V5VHN7 1-244) (enzyme)
